Experimental data as given in patent US20200002709.

What was measured:
Experiment in all cases: cell_activity
[1] = system: TaGliadin_T03.1 TALE nuclease pair; details: wheat protoplasts; also 0.00 for all treatments in TABLE 7
[2] = system: TaGliadin_T02.1 TALE nuclease pair; details: wheat protoplasts; TABLE 7: 0.00 nuclease only, 2.43 with TREX, 5.33 with 5-azacytidine, 0.00 with trichostatin A
[3] = system: TaGliadin_T01.1 TALE nuclease pair; details: wheat protoplasts, nuclease only; 0.325% in TABLE 6; 2.40 with TREX, 1.29 with 5-azacytidine, 0.90 with trichostatin A

## TCAGCAACAGCCACAAGAGCAAGTTCCATTGGTGCAACAACAACAATTTCCA (double strand) [TaGliadin_T03.1 target]
[1]
  activity (% mutation frequency): 0

## TCTCATCCTTGCCCTCCTTGCTATCGTGGCGACCACCGCCACAACTGCA (double strand) [TaGliadin_T02.1 target]
[2]
  activity (% mutation frequency): 0.746

## TTAGAGTTCCAGTGCCACAATTGCAGCCACAAAATCCATCTCAGCAACA (double strand) [TaGliadin_T01.1 target]
[3]
  activity (% mutation frequency): 1.57
